Measurements: patent US10918697B2, “Co-activation of mTOR and STAT3 pathways to promote neuronal survival and regeneration” (Children's Medical Center Corporation, priority 2011, dated 2021)
Entries after “also recorded” stand apart in the source; their conditions may differ.

Legend:
[1] = tested on: corticospinal tract (CST) axons; assay: CST sprouting after intraspinal CNTF injection without pyramidotomy, BDA tracing; assay type: in vivo, mice
Procedure: For pyramidotomy, mice were anesthetized with ketamine/xylazine. The procedure is similar to that described previously […]. Briefly, an incision was made at the left side of the trachea. Blunt dissection was performed to expose the skull base and a craniotomy in the occipital bone allowed for access to the medullary pyramids. The left pyramid was cut with a fine scalpel medially up to the basilar artery. The wound was dosed in layers with 6.0 sutures. The mice were placed on soft bedding on a warming blanket held at 37° C. until fully awake. We traced the intact CST 4 weeks later with BDA (see below). For CNTF injection into adult SOCS3 f/f mice with neonatal AAV-Cre cortical injection, a laminectomy was performed at C1 and 1 ul of CNTF (10 ug/ml, PeproTech, 450-13) was injected with a nanoliter injector into the ventral side of the dorsal column (0.5 mm deep). BDA tracing was performed 6 weeks later.
To label CST axons by anterograde tracing, a total of 2.0 μl of BDA (10%, Invitrogen, D-1956) was injected into the right sensorimotor cortex at five sites (anterior-posterior coordinates from bregma in mm; 1.0, 0.5, 0, −0.5, −1.0, all at 1.0 mm lateral and at a depth of 0.5 mm). Mice were kept for an additional 2 weeks before being sacrificed.
Mice were given a lethal dose of anesthesia and transcardially perfused with 4% paraformaldehyde. Brains and spinal cords were isolated and post-fixed in the same fixative overnight at 4° C. Tissues were cryoprotected via increasing concentrations of sucrose. After embedding into OCT compound, the samples were snap frozen in dry ice. […]
For the groups of pyramidotomy, digital images of C7 or other levels of the spinal cord transverse sections were collected using a Nikon fluorescence microscope. […]
To quantify the number of sprouting axons, the methods used in previous studies (Liu et al., 2010) were followed. […] Only fibers crossing the three lines were counted in each section. The results were presented after normalization with the number of counted CST fibers at the medulla level. At least three sections were counted for each mouse.

[2] = tested on: retinal ganglion cells (RGCs) / optic nerve axons; settings: SOCS3f/f mice, CNTF applied intravitreously; cited from earlier work

B1: ciliary neurotrophic factor (protein, UniProt P26441 1-200, looked up)
Ciliary neurotrophic factor: MAFTEHSPLTPHRRDLCSRSIWLARKIRSDLTALTESYVKHQGLNKNINLDSADGMPVASTDQWSELTEAERLQENLQAYRTFHVLLARLLEDQQVHFTPTEGDFHQAIHTLLLQVAAFAYQIEELMILLEYKIPRNEADGMPINVGDGGLFEKKLWGLKVLQELSQWTVRSIHDLRFISSHQTGIPARGSHYIANNKKM
[1]; SOCS3f/f mice, cortical AAV-Cre at P1, CNTF injected at C1, no injury
  CST sprouting at C7 spinal cord level: but not C7; also recorded: No CST sprouts seen
[1]; SOCS3f/f mice, cortical AAV-Cre at P1, CNTF injected into dorsal spinal cord at C1 in adulthood, no injury, vs saline
  CST sprouting at C1 spinal cord level: triggered a significant CST sprouting response; also recorded: promotes sprouting in SOCS3-deleted neurons in the absence of an injury; also recorded: numerous crossing CST axons
[1]; single CNTF injection at C1, SOCS3-deleted mice
  extent of CST sprouting compared with left pyramidotomy: less than after left pyramidotomy; also recorded: less pronounced than what is seen after injury
[2]
  effect of intravitreal CNTF on axon regeneration induced by SOCS3 deletion: enhances axon regeneration induced by SOCS3 deletion
